Ends that are not written are not given here. * marks the point of attachment. αGalNAc = CC(=O)N[C@@H]1[C@@H](O)[C@@H](O)[C@@H](CO)O[C@@H]1*
T1: CD44v6 glycopeptide … with O-linked GalNAc on threonine 5 and serine 12 (human, not fully specified (residue 12))
T1 construct: Synthetic 19-residue glycopeptide made by FMOC synthesis; also called CD44v6-Tn(S + T); Tn-glycosylated CD44v6 glycopeptide
T1 peptide: GYRQT(αGalNAc)PKEDSHSTTGTAAA

T2: CD44v6 peptide glycoform CD44v6-Tn(S) (human, not fully specified (residue 12); also: GalNAc (Tn) on serine only, position not given here)
T2 construct: That the serine is Ser 12 is inferred from the two-site glycopeptide
T2 peptide: GYRQTPKEDSHSTTGTAAA


How the values were obtained:
[1] = target: T1, CD44v6 glycopeptide … with O-linked …; experiment: hybridoma screening (ELISA, flow cytometry, immunofluorescence)
[2] = target: T1, CD44v6 glycopeptide … with O-linked …; experiment: SPR (Biacore); Biacore, not Octet
[3] = target: T2, CD44v6 peptide glycoform CD44v6-Tn(S); experiment: BLI (Octet); Octet; Tn(S) glycoform
[4] = target: T1, CD44v6 glycopeptide … with O-linked …; experiment: BLI (Octet), apparent affinity with avidity factored in
Tn-glycosylated MUC1 = target: T3, Tn-glycosylated MUC1 (UniProt P15941 138-197, limits assumed, Tn (GalNAc) glycosylated; sites not stated for the material used); experiment: Biacore (surface plasmon resonance); row MUC1-Tn, column Affinity (Biacore)
T3 construct: also called MUC1-Tn
T3 sequence (P15941 138-197 limits assumed): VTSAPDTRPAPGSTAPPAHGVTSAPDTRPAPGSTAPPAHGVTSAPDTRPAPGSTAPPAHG

| binding result [1] | Binder | further results |
| --- | --- | --- |
| binds | 2B2 monoclonal antibody (antibody, V domains shown, Murine hybridoma antibody) VH: EVQLVESGGGLVKPGGSLKLSCAASGFTFSSYAMSWVRQSPERRLEWVAEISSGGSYTYYPDTVTGRFTISRDNAKNTLYLEMSSLRSEDTAMYYCARTVGEDWYFDVWGAGTTVTVSS VL: DIQMTQTTSSLSASLGDRVTISCRASQDISHYLNWYQQKPDGAVKLLIYSTSRLHSGVPSRFSGSGSGTDYSLTISNLEQEDIATYFCQQGYTLPFTFGSGTKLEIK |  |
| binds | 18G9 monoclonal antibody (antibody, V domains shown, Murine hybridoma antibody) VH: DVQLVESGGGLVQPGGSRKLSCAASGFTFSSFGMHWVRQAPEKGLEWVAYISSGSSTIYYADTVKGRFTISRDNPKNTLFLQMTSLRSEDTAMYYCARGSYRAMDYWGQGTSVTVSS VL: QIVLTQSPALMSASPGEKVTMTCSASSSVNYMFWYQQKPRSSPKPWIYLTSNLASGVPARFSGSGSGTSYSLTISSMEAEDAATYYCQLWSSNPFTFGSGTKLEIK |  |

The remaining lines, values behind:

| Binder | binding result [1] | further results |
| --- | --- | --- |
| 10H4 monoclonal antibody (antibody, V domains shown, Rabbit antibody) VH: QSLEESGGRLVTPGTPLTLTCTASGFTINTYHMGWFRQAPGKGLQYIGIVSHDVGTYYATWAKGRFTISKTSSTTVDLRMPSPTTEDTATYICARGPGYWTFNLWGQGTLVTVSS VL: AQVLTQTPASVSAAVGGTVTINCQASQSVYNNNQLSWYQQKPGQPLKQLIYKASTLASGVPSRFKGSGSGSQFTLTISDLECDDAATYFCAGGYKGDIHPFGGGTEVVVK | binds |  |
| 4C8 monoclonal antibody (antibody, V domains shown, Murine hybridoma antibody from Balb/c mice immunised with the KLH-conjugated CD44v6 glycopeptide; It was detected with anti-mouse IgG Fc-gamma, and used as purified mAb or as hybridoma supernatant; also called 4C8 mAb; mAb 4C8) VH: QVQLQQPGSELVRPGASVKLSCKASGYTFTSYWMHWVKQRPGQGLEWIGNIYPRSGTTNYDGYFKSKATLTVDTSSSTAYMQLSSLTSEDSAVYFCTRSGYDYPFVYWGQGTLVTVSA VL: QAVVTQESALTTSPGETVTLTCRTSTGAVSIRNYANWVQEKPDHLFTGLIGGTNNRAPGVPARFSGSLIGDKAALTITGAQPEDEAIYFCALLYSNYWVFGGGTKLTVL |  | Kd [2]: 128 nM; Kd [3]: 6.4 nM; Kd [4]: 7.9 nM; Kd (Tn-glycosylated MUC1): > 400 nM |
| 1D12 monoclonal antibody (antibody, V domains shown, Murine hybridoma antibody) VH: DVQLVESGGGLVQPGGSRKLSCAASGFTFSSFGIHWVRQAPEKGLEWVAYISSGSSTIYYADTVKGRFTISRDNPKNTLFLQMTSLRSEDTAMYYCARGSKVVAKSRGYWYFDVWGAGTTVTVSS VL: DVVVTQTPLFLPVSFGDQVSISCRSSQSLANNYGITYLSWYLHRPGQSPQLLIYGISNRFSGVPDRFSGSGSGTDFTLKISTIKPEDLGMYYCLQGTHQPWTFGGGTKLEIK | binds |  |

From US20230126689A1 (GO THERAPEUTICS, published 2023)
